First the molecules themselves.
B2: full-length GST-SNX5 wild-type (natural protein, human, UniProt Q9Y5X3 1-404, looked up)
chain: MAAVPELLQQQEEDRSKLRSVSVDLNVDPSLQIDIPDALSERDKVKFTVHTKTTLPTFQSPEFSVTRQHEDFVWLHDTLIETTDYAGLIIPPAPTKPDFDGPREKMQKLGEGEGSMTKEEFAKMKQELEAEYLAVFKKTVSSHEVFLQRLSSHPVLSKDRNFHVFLEYDQDLSVRRKNTKEMFGGFFKSVVKSADEVLFTGVKEVDDFFEQEKNFLINYYNRIKDSCVKADKMTRSHKNVADDYIHTAACLHSLALEEPTVIKKYLLKVAELFEKLRKVEGRVSSDEDLKLTELLRYYMLNIEAAKDLLYRRTKALIDYENSNKALDKARLKSKDVKLAEAHQQECCQKFEQLSESAKEELINFKRKRVAAFRKNLIEMSELEIKHARNNVSLLQSCIDLFKNN
notes: sorting nexin 5, human, full-length, residues 1-404, amplified from human cDNA of the GM25256 cell line, in pGEX3; also called GST-SNX5 WT; WT; source: E. coli Rosetta 2 pLysS, purified (GSTrap, size exclusion); not shown: GST, N-terminal, kept
B4: His-SUMO-tagged CHC22 terminal domain, wild-type (domain or fragment, human, UniProt P53675 1-364, looked up)
chain: MAQILPVRFQEHFQLQNLGINPANIGFSTLTMESDKFICIREKVGEQAQVTIIDMSDPMAPIRRPISAESAIMNPASKVIALKAGKTLQIFNIEMKSKMKAHTMAEEVIFWKWVSVNTVALVTETAVYHWSMEGDSQPMKMFDRHTSLVGCQVIHYRTDEYQKWLLLVGISAQQNRVVGAMQLYSVDRKVSQPIEGHAAAFAEFKMEGNAKPATLFCFAVRNPTGGKLHIIEVGQPAAGNQPFVKKAVDVFFPPEAQNDFPVAMQIGAKHGVIYLITKYGYLHLYDLESGVCICMNRISADTIFVTAPHKPTSGIIGVNKKGQVLSVCVEEDNIVNYATNVLQNPDLGLRLAVRSNLAGAEKLF
notes: CHC22 clathrin heavy chain, N-terminal domain (TD), residues 1-364; also called CHC22 TD; His-bdSUMO-CHC22 TD; source: E. coli Rosetta 2 pLysS, purified (HisTrap, size exclusion); not shown: His, N-terminal, kept; bdSUMO, N-terminal, kept

Conditions in all cases: both partners purified
For assay [1], the target named is T1, full-length GST-SNX5 phosphomimetic S226E mutant (human, UniProt Q9Y5X3 1-404, S226E).
T1 construct: sorting nexin 5, human, full-length (1-404) with phosphomimetic point mutation S226E in the BAR domain; The making of the mutant is not described; also called GST-SNX5 S226E; not shown: GST, N-terminal, kept
T1 sequence (looked up): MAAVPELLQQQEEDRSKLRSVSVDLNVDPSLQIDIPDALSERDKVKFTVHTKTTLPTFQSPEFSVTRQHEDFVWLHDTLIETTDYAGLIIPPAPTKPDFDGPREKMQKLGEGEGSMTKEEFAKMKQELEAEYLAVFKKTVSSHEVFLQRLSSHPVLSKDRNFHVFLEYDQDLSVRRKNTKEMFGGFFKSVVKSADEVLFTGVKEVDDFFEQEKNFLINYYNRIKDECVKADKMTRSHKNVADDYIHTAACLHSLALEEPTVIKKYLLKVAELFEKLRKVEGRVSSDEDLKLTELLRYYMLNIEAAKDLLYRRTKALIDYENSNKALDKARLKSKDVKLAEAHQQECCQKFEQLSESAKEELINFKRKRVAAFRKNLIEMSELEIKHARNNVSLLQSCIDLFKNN

Assay [2] concerns the target B2.
A further assay concerns the target T2, full-length His-p115 (UniProt O60763 1-962).
T2 construct: p115, full-length, encoded by plasmid pIY119 (gift, Munro lab); not shown: 6xHis, N-terminal, kept
T2 sequence (looked up): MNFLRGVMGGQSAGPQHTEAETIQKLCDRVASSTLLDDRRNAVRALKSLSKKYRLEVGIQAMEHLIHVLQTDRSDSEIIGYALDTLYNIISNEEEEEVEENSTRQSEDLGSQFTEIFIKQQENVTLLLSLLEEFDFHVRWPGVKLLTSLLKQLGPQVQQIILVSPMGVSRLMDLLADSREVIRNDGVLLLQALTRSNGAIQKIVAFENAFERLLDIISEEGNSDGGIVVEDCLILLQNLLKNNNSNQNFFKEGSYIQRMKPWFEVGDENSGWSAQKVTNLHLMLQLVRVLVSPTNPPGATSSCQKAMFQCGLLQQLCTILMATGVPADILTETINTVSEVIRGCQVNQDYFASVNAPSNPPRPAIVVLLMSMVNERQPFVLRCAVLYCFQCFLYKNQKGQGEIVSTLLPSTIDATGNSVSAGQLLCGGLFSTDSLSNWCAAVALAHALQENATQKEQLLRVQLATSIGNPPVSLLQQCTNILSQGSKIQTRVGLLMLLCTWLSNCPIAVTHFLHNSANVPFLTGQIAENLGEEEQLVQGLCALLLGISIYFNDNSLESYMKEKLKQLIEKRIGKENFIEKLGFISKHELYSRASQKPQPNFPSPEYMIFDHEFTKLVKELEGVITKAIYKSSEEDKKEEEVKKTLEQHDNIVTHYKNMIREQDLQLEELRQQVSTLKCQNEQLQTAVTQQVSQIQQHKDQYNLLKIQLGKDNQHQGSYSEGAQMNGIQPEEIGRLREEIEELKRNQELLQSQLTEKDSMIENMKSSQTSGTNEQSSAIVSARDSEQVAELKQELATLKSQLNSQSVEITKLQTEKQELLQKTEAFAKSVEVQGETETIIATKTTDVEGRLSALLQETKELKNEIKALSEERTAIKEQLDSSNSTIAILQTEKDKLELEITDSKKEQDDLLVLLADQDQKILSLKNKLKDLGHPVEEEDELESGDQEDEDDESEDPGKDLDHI
Description: pull-down; His-tagged bait on Ni-NTA HisPur beads, 15 µg purified GST-only or GST-SNX5 as prey in 250 µL His PD buffer for 45 min, immunoblot. A general note: In western blotting, separated proteins are transferred to a membrane and probed.

Another assay has as its target T3, His-tagged CHC22 Hub (human, UniProt P53675 1074-1640).
T3 construct: CHC22 clathrin heavy chain, Hub domain (C-terminal third), residues 1074-1640; also called His-CHC22-Hub; not shown: 6xHis, N-terminal, kept
T3 sequence (looked up): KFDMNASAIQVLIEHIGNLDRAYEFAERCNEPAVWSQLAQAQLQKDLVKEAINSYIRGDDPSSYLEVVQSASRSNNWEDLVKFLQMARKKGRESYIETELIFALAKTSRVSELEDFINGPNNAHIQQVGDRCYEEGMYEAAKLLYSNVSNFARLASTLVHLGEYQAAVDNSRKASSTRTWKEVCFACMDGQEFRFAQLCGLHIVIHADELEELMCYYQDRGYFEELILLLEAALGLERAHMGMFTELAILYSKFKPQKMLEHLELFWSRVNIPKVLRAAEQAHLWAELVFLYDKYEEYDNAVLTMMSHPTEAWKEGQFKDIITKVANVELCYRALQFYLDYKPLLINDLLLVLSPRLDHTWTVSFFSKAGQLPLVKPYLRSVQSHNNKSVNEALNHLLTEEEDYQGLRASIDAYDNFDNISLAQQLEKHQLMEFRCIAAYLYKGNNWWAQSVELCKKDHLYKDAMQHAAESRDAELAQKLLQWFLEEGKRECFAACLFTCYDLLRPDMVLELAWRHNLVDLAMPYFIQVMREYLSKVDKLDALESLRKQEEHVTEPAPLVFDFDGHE
The assay is described as above.

The target in a further assay is T4, full-length His-SNX1 (UniProt Q13596 1-522).
T4 construct: SNX1, full-length, residues 1-522, sub-cloned from a plasmid of the Cullen lab into pET15b; also called recombinant SNX1; source: E. coli BL21 (DE3), purified (HisTrap, size exclusion); not shown: 6xHis, N-terminal, kept

Assay [3] concerns the target T5, His-SUMO-tagged CHC17 terminal domain (human, UniProt Q00610 1-364).
T5 construct: CHC17 clathrin heavy chain, N-terminal domain (TD), residues 1-364; also called CHC17 TD; His-bdSUMO-CHC17 TD; source: E. coli Rosetta 2 pLysS, purified (HisTrap, size exclusion); not shown: His, N-terminal, kept; bdSUMO, N-terminal, kept
T5 sequence (looked up): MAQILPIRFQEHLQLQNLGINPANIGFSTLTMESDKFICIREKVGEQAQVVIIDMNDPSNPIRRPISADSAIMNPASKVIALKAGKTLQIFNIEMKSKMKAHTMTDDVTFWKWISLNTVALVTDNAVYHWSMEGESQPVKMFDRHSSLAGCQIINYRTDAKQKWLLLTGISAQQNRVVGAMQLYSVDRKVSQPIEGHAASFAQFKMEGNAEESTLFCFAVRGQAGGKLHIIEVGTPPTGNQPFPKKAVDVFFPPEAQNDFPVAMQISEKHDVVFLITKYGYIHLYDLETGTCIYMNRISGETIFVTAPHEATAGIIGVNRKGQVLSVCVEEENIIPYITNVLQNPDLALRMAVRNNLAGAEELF
Description: pull-down; GST, GST-GGA2-HE or GST-p115 on glutathione beads, 12.5 µg purified His-bdSUMO-CHC17 TD in 250 µl CHC17 PD buffer for 60 min, immunoblot.

Assay [4] deals with B4. Description: pull-down; GST, GST-GGA2-HE or GST-p115 on glutathione beads, 12.5 µg purified His-bdSUMO-CHC22 TD (WT or Chim) in 250 µl CHC22 PD buffer for 45 min, immunoblot.
In the next assay the target is T6, full-length GST-p115 (UniProt O60763 1-962).
T6 construct: p115, full-length, residues 1-962, amplified from pIY119 into pGEX3; not shown: GST, N-terminal, kept
T6 sequence (looked up): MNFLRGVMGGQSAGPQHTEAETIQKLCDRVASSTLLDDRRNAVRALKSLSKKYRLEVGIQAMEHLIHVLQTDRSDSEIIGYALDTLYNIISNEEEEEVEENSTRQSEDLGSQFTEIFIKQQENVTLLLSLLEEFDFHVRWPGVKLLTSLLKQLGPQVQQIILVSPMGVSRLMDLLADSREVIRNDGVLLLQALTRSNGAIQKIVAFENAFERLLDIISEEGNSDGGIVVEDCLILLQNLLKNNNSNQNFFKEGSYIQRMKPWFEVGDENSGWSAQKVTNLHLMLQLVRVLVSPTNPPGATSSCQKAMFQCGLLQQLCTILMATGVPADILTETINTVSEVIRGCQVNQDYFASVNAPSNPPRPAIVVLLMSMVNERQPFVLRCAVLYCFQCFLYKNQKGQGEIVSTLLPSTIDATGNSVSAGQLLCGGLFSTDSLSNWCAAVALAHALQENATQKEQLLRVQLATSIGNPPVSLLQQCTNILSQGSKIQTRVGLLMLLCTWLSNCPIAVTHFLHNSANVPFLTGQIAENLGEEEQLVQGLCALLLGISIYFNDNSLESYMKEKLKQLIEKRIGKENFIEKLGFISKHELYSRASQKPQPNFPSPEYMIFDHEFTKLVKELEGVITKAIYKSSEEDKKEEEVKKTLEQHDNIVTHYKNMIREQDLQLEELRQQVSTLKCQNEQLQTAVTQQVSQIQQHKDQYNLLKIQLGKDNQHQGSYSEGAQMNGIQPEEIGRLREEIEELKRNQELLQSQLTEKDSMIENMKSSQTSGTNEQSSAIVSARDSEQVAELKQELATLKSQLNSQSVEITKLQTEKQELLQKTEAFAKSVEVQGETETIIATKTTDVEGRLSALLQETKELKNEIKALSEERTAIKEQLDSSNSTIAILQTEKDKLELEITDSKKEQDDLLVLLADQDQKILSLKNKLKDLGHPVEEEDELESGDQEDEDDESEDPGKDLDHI
The assay is described as above.

T4 sequence (Q13596 whole entry, the tested form may be a part): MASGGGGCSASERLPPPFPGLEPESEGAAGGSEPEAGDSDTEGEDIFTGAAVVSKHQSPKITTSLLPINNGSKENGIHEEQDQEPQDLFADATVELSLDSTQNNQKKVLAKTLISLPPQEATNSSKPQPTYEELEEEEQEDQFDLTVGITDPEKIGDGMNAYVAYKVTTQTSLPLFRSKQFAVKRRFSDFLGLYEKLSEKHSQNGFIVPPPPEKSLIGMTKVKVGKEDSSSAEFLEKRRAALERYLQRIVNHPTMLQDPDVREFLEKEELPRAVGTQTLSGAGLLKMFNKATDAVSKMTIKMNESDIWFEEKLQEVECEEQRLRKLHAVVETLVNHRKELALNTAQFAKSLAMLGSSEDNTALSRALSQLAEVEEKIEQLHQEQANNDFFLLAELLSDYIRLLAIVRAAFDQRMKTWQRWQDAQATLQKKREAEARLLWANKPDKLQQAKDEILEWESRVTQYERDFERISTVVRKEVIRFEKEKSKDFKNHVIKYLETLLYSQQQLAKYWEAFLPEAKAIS

B1: His-tagged CHC22 TxD (domain or fragment, human, UniProt P53675 1521-1640, looked up)
chain: WAQSVELCKKDHLYKDAMQHAAESRDAELAQKLLQWFLEEGKRECFAACLFTCYDLLRPDMVLELAWRHNLVDLAMPYFIQVMREYLSKVDKLDALESLRKQEEHVTEPAPLVFDFDGHE
notes: CHC22 clathrin heavy chain, trimerization domain; methods give residues 1521-1640, the results 1520-1640; Limits told in two ways (1521-1640 in methods, 1520-1640 in results); also called His-22TxD; His-CHC22 TxD; source: E. coli BL21 (DE3), purified (HisTrap, size exclusion); not shown: 6xHis, N-terminal, kept
Turning to B1, the binding result in assay [1] and in assay [2] was “binds” in each case.

On to B2, for which the binding result with full-length His-p115, in the assay with His-tagged CHC22 Hub and with full-length His-SNX1 was “binds” in each case.

B3: GST-GGA2-HE (domain or fragment, UniProt Q9UJY4 316-613, looked up)
chain: GRVTFGNRVTSSLGDIPVSRVFQNPAGCMKTCPLIDLEVDNGPAQMGTVVPSLLHQDLAALGISDAPVTGMVSGQNCCEEKRNPSSSTLPGGGVQNPSADRNLLDLLSAQPAPCPLNYVSQKSVPKEVPPGTKSSPGWSWEAGPLAPSPSSQNTPLAQVFVPLESVKPSSLPPLIVYDRNGFRILLHFSQTGAPGHPEVQVLLLTMMSTAPQPVWDIMFQVAVPKSMRVKLQPASSSKLPAFSPLMPPAVISQMLLLDNPHKEPIRLRYKLTFNQGGQPFSEVGEVKDFPDLAVLGAA
notes: GGA2, hinge-GAE (hinge-ear) fragment, residues 316-613; also called GGA2-hinge-GAE; hinge-ear fragment of GGA2; not shown: GST, N-terminal, kept
As for B3, the binding result in assay [3] and in assay [4] was “binds” each time.

Regarding B4, the binding result in the assay with full-length GST-p115 was “binds”.

The record behind these values is article PMC11445476, “CHC22 clathrin recruitment to the early secretory pathway requires two-site interaction with SNX5 and p115” (The EMBO Journal, 2024).
